The values below come from patent US20190330298A1 (WORG PHARMACEUTICALS ZHEJIANG, published 2019).

In the assay the target is T1, HLA-DRB1*0301 molecule (HLA-DR3 MHC class II of DR3tg mice) (human).
T1 construct: whole, on cells; MHC class II expressed by DR3tg mice (no mouse MHC II); the responding T cells came from DR3 mice; also called MHC II
Nature of the assay: in vivo presentation test in DR3tg mice; binding inferred from IFN-γ response of peptide-specific T cells to isolated CD11c+ cells. As for the experimental part: DR3tg or DR2tg mice were injected with 100 μg of peptide in 100 μl PBS subcutaneously (s.c.) in the flank. Control animals received a s.c. injection of 100 μl PBS. After 2 hours, spleens were harvested and single-cell suspensions were made. CD11c⁺ cells were positively selected using CD11c microbeads according to the manufacturer's instructions (Miltenyi Biotec, Bergisch Gladbach, Germany). Average purities of >92% were reached. 5×10⁴ CD11c⁺ cells were co-cultured with 5×10⁴ CD4⁺ cells in round bottom 96-well plates in X-vivo 15 medium (supplemented with 2 mM L-glutamine, 50 U/mL penicillin and 50 U/mL streptomycin; Lonza). […] After 48 hours, supernatant of these co-cultures was collected and CD4⁺ T cell activation was analysed by IFN-γ ELISA (R&D Systems, Abingdon, UK). In a parallel experiment, CD4⁺ T cell responses towards peptide added in vitro were assessed to make sure the T cells recognize the peptides presented by the CD11c⁺ cells.
In FIG. 15 the ability of HIP-115NE3 (insoluble peptide) and that of its soluble version, HIP-115NE3-KKK, to be picked up and presented by MHC II molecules present on dendritic cells (DC) upon sc. injection in an in vivo setting (DR3tg mice) was compared. […] T cell activity response was measured by production of IFN-γ. […]

B1: HIP-115NE3-KKK (peptide)
peptide: H-KKKVIFKKISRDKSVTIYLGKKK-NH2
notes: Synthetic; HIP-115NE3 with KKK at both ends
Regarding B1, the binding result was “binds”.
